Reference: patent publication US20260049138A1 (Chugai, published 2026)
Residue numbers refer to the chain shown, from its start. In names and notes the source's numbering stands.

B1: 154R4B07#1 one-arm antibody (antibody, human IgG1, kappa, L234A L235A, N297A)
heavy: QVQLVESGGGLVQPGRSLRLSCAASGFTFSNAWMHWVRQAPGKGLEWVAQIKDRGNNYAAYYAESVKGRFTISRDDSKNSIYLQMNSLKTEDTAVYYCRYVHYGSYFFASFYFGVDIWGQGTTVTVSSASTKGPSVFPLAPSSKSTSGGTAALGCLVKDYFPEPVTVSWNSGALTSGVHTFPAVLQSSGLYSLSSVVTVPSSSLGTQTYICNVNHKPSNTKVDKKVEPKSCDKTHTCPPCPAPEAAGGPSVFLFPPKPKDTLMISRTPEVTCVVVDVSHEDPEVKFNWYVDGVEVHNAKTKPREEQYASTYRVVSVLTVLHQDWLNGKEYKCKVSNKALPAPIEKTISKAKGQPREPQVYTLPPSRCELTKNQVSLSCAVKGFYPSDIAVEWESNGQPENNYKTTPPVLDSDGSFFLVSKLTVDKSRWQQGNVFSCSVMHEALHNHYTQKSLSLSPDYKDDDDK
chain: EPKSSDKTHTCPPCPAPELLGGPSVFLFPPKPKDTLMISRTPEVTCVVVDVSHEDPEVKFNWYVDGVEVHNAKTKPREEQYNSTYRVVSVLTVLHQDWLNGKEYKCKVSNKALPAPIEKTISKAKGQPREPQVCTLPPSRDELTKNQVSLWCLVKGFYPSDIAVEWESNGQPENNYKTTPPVLDSDGSFFLYSKLTVDKSRWQQGNVFSCSVMHEALHNRYTQKSLSLSP
light: DIVMTQSPLSLPVTPGEPASISCRSSQSLVHSNRNTYLHWYQQKPGQAPRLLIYKVSNRFSGVPDRFSGSGSGTDFTLKISRVEAEDVGVYYCGQGTQVPYTFGQGTKLEIKRTVAAPSVFIFPPSDEQLKSGTASVVCLLNNFYPREAKVQWKVDNALQSGNSQESVTEQDSKDSTYSLSSTLTLSKADYEKHKVYACEVTHQGLSSPVTKSFNRGEC
notes: As m48
B2: 154R3A01#1 one-arm antibody (antibody, human IgG1, kappa, L234A L235A, N297A)
heavy: QVQLVESGGGLVQPGRSLRLSCAASGFTFSNAWMHWVRQAPGKGLEWVAQIKDRVNQYANYYAESVKGRFTISRDDSKNSIYLQMNSLKTEDTAVYYCRYVHYGLTGYFSGQGGVDAWGQGTTVTVSSASTKGPSVFPLAPSSKSTSGGTAALGCLVKDYFPEPVTVSWNSGALTSGVHTFPAVLQSSGLYSLSSVVTVPSSSLGTQTYICNVNHKPSNTKVDKKVEPKSCDKTHTCPPCPAPEAAGGPSVFLFPPKPKDTLMISRTPEVTCVVVDVSHEDPEVKFNWYVDGVEVHNAKTKPREEQYASTYRVVSVLTVLHQDWLNGKEYKCKVSNKALPAPIEKTISKAKGQPREPQVYTLPPSRCELTKNQVSLSCAVKGFYPSDIAVEWESNGQPENNYKTTPPVLDSDGSFFLVSKLTVDKSRWQQGNVFSCSVMHEALHNHYTQKSLSLSPDYKDDDDK
chain: B1 chain
light: B1 light
B3: 154R4F08#1 one-arm antibody (antibody, human IgG1, kappa, L234A L235A, N297A)
heavy: B1 heavy with R16H
chain: B1 chain
light: B1 light
notes: As m48
B4: 154R3A01#2 one-arm antibody (antibody, human IgG1, kappa, L234A L235A, N297A)
heavy: B2 heavy with F70L
chain: B1 chain
light: B1 light
notes: As m48
B5: 154R3A01#3 one-arm antibody (antibody, human IgG1, kappa, L234A L235A, N297A)
heavy: B2 heavy with T28A
chain: B1 chain
light: B1 light
notes: As m48
B6: CE115HA000 Y100G one-arm antibody (antibody, human IgG1, kappa, L234A L235A, N297A, name in Kabat numbering)
heavy: QVQLVESGGGVVQPGRSLRLSCAASGFTFSNAWMHWVRQAPGKGLEWVAQIKAKSNNYATYYAESVKGRFTISRDDSKNSLYLQMNSLKTEDTAVYYCRYVHYGAGYGVDAWGQGTTVTVSSASTKGPSVFPLAPSSKSTSGGTAALGCLVKDYFPEPVTVSWNSGALTSGVHTFPAVLQSSGLYSLSSVVTVPSSSLGTQTYICNVNHKPSNTKVDKKVEPKSCDKTHTCPPCPAPEAAGGPSVFLFPPKPKDTLMISRTPEVTCVVVDVSHEDPEVKFNWYVDGVEVHNAKTKPREEQYASTYRVVSVLTVLHQDWLNGKEYKCKVSNKALPAPIEKTISKAKGQPREPQVYTLPPSRCELTKNQVSLSCAVKGFYPSDIAVEWESNGQPENNYKTTPPVLDSDGSFFLVSKLTVDKSRWQQGNVFSCSVMHEALHNHYTQKSLSLSPDYKDDDDK
chain: B1 chain
light: B1 light
B7: CE115HA000 Y100K one-arm antibody (antibody, human IgG1, kappa, L234A L235A, N297A, name in Kabat numbering)
heavy: B6 heavy with G106K
chain: B1 chain
light: B1 light
B8: CE115HA000 Y100L one-arm antibody (antibody, human IgG1, kappa, L234A L235A, N297A, name in Kabat numbering)
heavy: B6 heavy with G106L
chain: B1 chain
light: B1 light
B9: CE115HA000 Y100P one-arm antibody (antibody, human IgG1, kappa, L234A L235A, N297A, name in Kabat numbering)
heavy: B6 heavy with G106P
chain: B1 chain
light: B1 light
B10: CE115HA000 Y100Q one-arm antibody (antibody, human IgG1, kappa, L234A L235A, N297A, name in Kabat numbering)
heavy: B6 heavy with G106Q
chain: B1 chain
light: B1 light
B11: CE115HA000 Y100S one-arm antibody (antibody, human IgG1, kappa, L234A L235A, N297A, name in Kabat numbering)
heavy: B6 heavy with G106S
chain: B1 chain
light: B1 light
B12: CE115HA000 Y100V one-arm antibody (antibody, human IgG1, kappa, L234A L235A, N297A, name in Kabat numbering)
heavy: B6 heavy with G106V
chain: B1 chain
light: B1 light
B13: CE115HA000 Y100W one-arm antibody (antibody, human IgG1, kappa, L234A L235A, N297A, name in Kabat numbering)
heavy: B6 heavy with G106W
chain: B1 chain
light: B1 light
B14: CE115HA000 Y100aA one-arm antibody (antibody, human IgG1, kappa, L234A L235A, N297A, name in Kabat numbering)
heavy: B6 heavy with G106Y, Y107A
chain: B1 chain
light: B1 light
B15: CE115HA000 Y100aD one-arm antibody (antibody, human IgG1, kappa, L234A L235A, N297A, name in Kabat numbering)
heavy: B6 heavy with G106Y, Y107D
chain: B1 chain
light: B1 light
B16: CE115HA000 Y100aF one-arm antibody (antibody, human IgG1, kappa, L234A L235A, N297A, name in Kabat numbering)
heavy: B6 heavy with G106Y, Y107F
chain: B1 chain
light: B1 light
B17: CE115HA000 Y100aG one-arm antibody (antibody, human IgG1, kappa, L234A L235A, N297A, name in Kabat numbering)
heavy: B6 heavy with G106Y, Y107G
chain: B1 chain
light: B1 light
B18: CE115HA000 Y100aK one-arm antibody (antibody, human IgG1, kappa, L234A L235A, N297A, name in Kabat numbering)
heavy: B6 heavy with G106Y, Y107K
chain: B1 chain
light: B1 light
B19: CE115HA000 Y100aL one-arm antibody (antibody, human IgG1, kappa, L234A L235A, N297A, name in Kabat numbering)
heavy: B6 heavy with G106Y, Y107L
chain: B1 chain
light: B1 light
B20: CE115HA000 Y100aQ one-arm antibody (antibody, human IgG1, kappa, L234A L235A, N297A, name in Kabat numbering)
heavy: B6 heavy with G106Y, Y107Q
chain: B1 chain
light: B1 light
B21: CE115HA000 Y100aS one-arm antibody (antibody, human IgG1, kappa, L234A L235A, N297A, name in Kabat numbering)
heavy: B6 heavy with G106Y, Y107S
chain: B1 chain
light: B1 light

Columns and labels:
human CD154 = target: T1, human CD154 (human, UniProt P29965 113-261, limits assumed, biotin-labeled); test: ECL competition, CD3ε[+]: CD3ε homodimer added as competitor [1]
T1 construct: also called biotin-labeled human CD154; biotinylated human CD154
T1 sequence (looked up): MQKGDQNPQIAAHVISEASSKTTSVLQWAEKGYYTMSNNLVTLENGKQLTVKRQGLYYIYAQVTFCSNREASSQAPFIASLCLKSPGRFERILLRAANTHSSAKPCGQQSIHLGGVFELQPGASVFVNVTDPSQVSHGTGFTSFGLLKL
Protocol: Next, each obtained IgG was evaluated for its binding to CD3 and human CD154 at the same time by the competition method (electrochemiluminescence method (ECL method)).
A TBST solution containing 0.5% BSA (referred to as a blocking solution; the TBST solution was TBS (manufactured by Takara Bio Inc.) supplemented with 0.1% Tween 20) was added at 150 μL/well to streptavidin plate (MSD K.K.), and the plate was incubated at room temperature for 1 hour or longer. After removal of the blocking solution, each well was washed three times with 250 μL of a TBST solution. The antibody-antigen complex solution was added thereto at 50 μL/well, and the plate was incubated at room temperature for 1 hour so that the biotinylated antigen-antibody-detection sulfo-tag antibody complex solution bound via the biotinylated antigen to the streptavidin plate. After removal of the antibody-antigen complex solution, each well was washed three times with a TBST solution, and a solution of 4×READ buffer (MSD K.K.) diluted 2-fold with water was added thereto at 150 μL/well, followed by the detection of the luminescence signal of the sulfo-tag using Sector Imager 2400 (MSD K.K.).

CD3ε homodimer protein = target: T2, CD3ε homodimer protein (human, UniProt P07766 23-126, limits assumed, sulfo-tag or biotin label in the ECL assays; amine-coupled to the chip in SPR); test: SPR Biacore T200; CD3ε homodimer on CM4 chip;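 note: Single-residue variant antibodies injected as analyte over CD3ε homodimer immobilized by amine coupling, run at 25 °C in HBS-EP+ buffer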
T2 construct: also called human CD3ε homodimer protein; CD3 (CD3ε)
T2 sequence (P07766 23-126 limits assumed): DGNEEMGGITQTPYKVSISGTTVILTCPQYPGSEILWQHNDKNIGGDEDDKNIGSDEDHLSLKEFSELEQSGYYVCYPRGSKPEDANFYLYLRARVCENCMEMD

| Binder | relative ECL reaction (to no antigen coating) (human CD154) | ratio of amounts bound Z=Y/X (altered form / CE115HA000) (CD3ε homodimer protein) |
| --- | --- | --- |
| B1 | 1 | – |
| B2 | 21 | – |
| B3 | 1 | – |
| B4 | 4 | – |
| B5 | 19 | – |
| B6 | – | 1.07 |
| B7 | – | 1.07 |
| B8 | – | 0.7 |
| B9 | – | 0.48 |
| B10 | – | 0.8 |
| B11 | – | 0.81 |
| B12 | – | 0.6 |
| B13 | – | 1.03 |
| B14 | – | 0.62 |
| B15 | – | 0.31 |
| B16 | – | 0.87 |
| B17 | – | 1.23 |
| B18 | – | 0.9 |
| B19 | – | 0.48 |
| B20 | – | 0.56 |
| B21 | – | 0.64 |
